Molecular target: HLA-A*11:01
Experiment: IEDB peptide-MHC binding, purified MHC/competitive/radioactivity; ≥ and ≤ were set here for values at or beyond the usual limits of such assays
Settings: source organism: Human papillomavirus 16

Sequence | IC50
IVYRDGNPY | 21 nM
AVCDKCLK | 496 nM
FQDPQERPRK | 453 nM
DIILECVYCK | 280 nM
LLIRCINCQK | 24 nM
AMFQDPQER | 12 nM
GTTLEQQYNK | 6 nM
IILECVYCK | 125 nM
TTLEQQYNK | 6 nM
GIVCPICSQK | 98 nM
ISEYRHYCY | 166 nM

Molecular target: HLA-A*24:02
Experiment: as above
Settings: source organism: Human papillomavirus 16

Sequence | IC50
VYDFAFRDL | 360 nM
RFHNIRGRW | 220 nM
FYSRIREL | 461 nM
CYSLYGTTL | 137 nM
RAHYNIVTF | 290 nM

Molecular target: HLA-A*01:01
Experiment: as above
Settings: source organism: Human papillomavirus 16

Sequence | IC50
ETTDLYCY | 320 nM
YSKISEYRHY | 147 nM
ISEYRHYCY | 49 nM

Molecular target: HLA-A*03:01
Experiment: as above
Settings: source organism: Human papillomavirus 16

Sequence | IC50
LLIRCINCQK | 92 nM
AMFQDPQER | 290 nM
HLDKKQRFH | 68 nM

Molecular target: HLA-A*11:01
Experiment: IEDB peptide-MHC binding, purified MHC/competitive/radioactivity; filed as Kd, often an IC50 or EC50 that approximates it; ≥ and ≤ were set here for values at or beyond the usual limits of such assays
Settings: source organism: Human papillomavirus 16

Sequence | Kd
QQLLRREVY | 1190 nM

Molecular target: HLA-A*24:02
Experiment: as above
Settings: source organism: Human papillomavirus 16

Sequence | Kd
LLRREVYDF | 4780 nM
MHQKRTAMF | 4490 nM

Molecular target: HLA-A*01:01
Experiment: as above
Settings: source organism: Human papillomavirus 16

Sequence | Kd
QAEPDRAHY | 2790 nM
EIDGPAGQA | 3240 nM
HVDIRTLED | 3760 nM
TTDLYCYEQ | 3760 nM

Molecular target: HLA-A*03:01
Experiment: as above
Settings: source organism: Human papillomavirus 16

Sequence | Kd
SLYGTTLEQ | 3750 nM
IILECVYCK | 3700 nM
